Data as given in PMC10509353, “Increased intracellular persulfide levels attenuate HlyU-mediated hemolysin transcriptional activation in Vibrio cholerae” (The Journal of Biological Chemistry, 2023).

T1: HlyU (VcHlyU), WT (Vibrio cholerae, UniProt P52695 1-108)
T1 sequence: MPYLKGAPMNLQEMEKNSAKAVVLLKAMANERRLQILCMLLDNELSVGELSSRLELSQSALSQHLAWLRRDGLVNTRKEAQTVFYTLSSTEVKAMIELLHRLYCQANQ

B1: Vibrio cholerae HlyU (natural protein)
chain: T1 sequence
notes: also called VcHlyU; WT HlyU
B2: hlyO operator (hlyA promoter) (dsDNA)
DNA 1: TATAAATTAATTCAGACTAAATTAGTTCAAA
DNA 2: TTTGAACTAATTTAGTCTGAATTAATTTATA

Experiments:
[1] = target: the molecule itself; assay: SEC; calibrated Superdex 75 gel-filtration column; 25 mM MES, 0.2 M NaCl, 2 mM EDTA, 2 mM TCEP, 5% glycerol, pH 6, 25 °C
HlyU (VcHlyU), WT [2] = target: T1, HlyU (VcHlyU), WT; assay: fluorescence anisotropy; reduced HlyU (TCEP), 100 mM NaCl; n=4; Table 1: 25 mM Hepes pH 7, 100 mM NaCl, 1 mM EDTA, 25 °C; Methods: 10 mM Hepes pH 7.0, 0.1 M NaCl, with or without 2 mM TCEP, 10 nM DNA; settings: protein: recombinant; chain copies: 2; label: 5'-fluorescein on strand 1; blunt
HlyU (VcHlyU), WT [3] = target: T1, HlyU (VcHlyU), WT; assay: fluorescence anisotropy; HlyU pretreated with 5-fold H2O2; text: no change in affinity; n=3; Table 1: 25 mM Hepes pH 7, 100 mM NaCl, 1 mM EDTA, 25 °C; Methods: 10 mM Hepes pH 7.0, 0.1 M NaCl, with or without 2 mM TCEP, 10 nM DNA; settings: protein: recombinant; chain copies: 2; label: 5'-fluorescein on strand 1; blunt

| Binder | stoichiometry N [1] | Ka (HlyU (VcHlyU), WT [2]) | Ka (HlyU (VcHlyU), WT [3]) |
| --- | --- | --- | --- |
| B1 | 2 |  |  |
| B2 |  | 0.4 ± 0.08 10^9 M^-1 | 0.19 ± 0.03 10^9 M^-1 |
